Results taken from US20080025968A1 (YEDA RESEARCH AND DEVELOPMENT, published 2008).

Target: T1, IKK2, endogenous (human, UniProt O14920 1-756)
T1 construct: mature; also called IKKβ
T1 sequence (looked up): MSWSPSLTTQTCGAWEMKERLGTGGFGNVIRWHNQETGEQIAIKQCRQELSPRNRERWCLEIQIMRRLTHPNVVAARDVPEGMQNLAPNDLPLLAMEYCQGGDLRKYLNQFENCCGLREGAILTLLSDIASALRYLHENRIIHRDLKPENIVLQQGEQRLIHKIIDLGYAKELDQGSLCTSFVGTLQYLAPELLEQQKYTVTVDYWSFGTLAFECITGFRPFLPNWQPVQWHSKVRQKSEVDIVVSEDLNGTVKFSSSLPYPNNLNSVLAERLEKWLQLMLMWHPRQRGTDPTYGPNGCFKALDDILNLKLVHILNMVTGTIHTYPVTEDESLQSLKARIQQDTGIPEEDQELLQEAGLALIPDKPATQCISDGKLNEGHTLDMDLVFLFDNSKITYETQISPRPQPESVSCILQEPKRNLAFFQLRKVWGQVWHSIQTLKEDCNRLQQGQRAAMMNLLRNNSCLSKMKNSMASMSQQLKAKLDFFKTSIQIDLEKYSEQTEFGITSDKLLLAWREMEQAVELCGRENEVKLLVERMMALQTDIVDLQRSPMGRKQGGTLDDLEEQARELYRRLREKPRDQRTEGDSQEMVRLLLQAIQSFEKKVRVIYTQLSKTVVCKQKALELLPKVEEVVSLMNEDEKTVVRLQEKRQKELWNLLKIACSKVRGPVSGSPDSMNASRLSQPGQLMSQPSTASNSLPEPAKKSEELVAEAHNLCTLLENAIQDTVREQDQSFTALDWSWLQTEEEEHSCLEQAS
Experiment: western blot of the p55 TNF receptor complex from Ramos cells after TNF (FIG. 5c)

B1: p55 TNF receptor, endogenous in Ramos cells (receptor, human, UniProt P19438 30-455, looked up)
chain: LVPHLGDREKRDSVCPQGKYIHPQNNSICCTKCHKGTYLYNDCPGPGQDTDCRECESGSFTASENHLRHCLSCSKCRKEMGQVEISSCTVDRDTVCGCRKNQYRHYWSENLFQCFNCSLCLNGTVHLSCQEKQNTVCTCHAGFFLRENECVSCSNCKKSLECTKLCLPQIENVKGTEDSGTTVLLPLVIFFGLCLLSLLFIGLMYRYQRWKSKLYSIVCGKSTPEKEGELEGTTTKPLAPNPSFSPTPGFTPTLGFSPVPSSTFTSSSTYTPGDCPNFAAPRREVAPPYQGADPILATALASDPIPNPLQKWEDSAHKPQSLDTDDPATLYAVVENVPPLRWKEFVRRLGLSDHEIDRLELQNGRCLREAQYSMLATWRRRTPRREATLELLGRVLRDMDLLGCLEDIEEALCGPAALPPAPSLLR
notes: whole, on cells; TNF-receptor complex precipitated as described by Zhang et al., 2000
Does B1 bind?
Result: binds
